The text below walks through data of the supplement of paper PMC9170038.

The subject of this series is MS2 coat protein. Briefly: apparent KD of MS2 coat protein; designed switch direction (-1 OFF switch, 1 ON switch): 1; higher = weaker reporter binding. In outline:
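For each design, the apparent KD is the median over clusters of curves fitted to normalised cluster fluorescence. Clusters held RNA switches with common flanks, transcribed on Illumina chips by stalled E. coli RNA polymerase. These were titrated with SNAP-549-labelled MS2 coat protein, doubling from 0.7 or 1.5 nM to 3 µM, without input, with 200 uM small-molecule ligand, or with an oligonucleotide input.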

Setting [1] is: Eterna round: R95, input ligand: FMN 200 uM.
[2] abbreviates: Eterna round: R95, input ligand: microRNA oligo, concentration not stated.
The mark [3] stands for this setting: Eterna round: R95, input ligand: none.
[4] abbreviates: input ligand: microRNA oligo, concentration not stated.

In the case of “AAUAAAGUCAGUAAGGAUAUCCAAAUGGCGACAUGAGGAUCACCCAUGUAAGAAACCCGACAUCGGGAGAAGGUACAUGACGAUG [Enlaorle] (puzzle: Same State 2)”, the “apparent KD of MS2 coat protein” value is, setting by setting: under setting [1], 87.9 nM; under setting [2], 124 nM; under setting [3], 127 nM.
Regarding “AAUAAGUUCAGCUCGUCUUGCGCCGACUGACAUGAGGAUCACCCAUGUGGAUUCCAAGGAAUCCAUUGGCGUGUUUC [Ororer] (puzzle: Sensor for hsa-mir-208a)”, the “apparent KD of MS2 coat protein” value was 34.8 nM under setting [1], 54.3 nM under setting [2] and 24.8 nM under setting [3].
Take “AAUUAACAUGAGGAUCACCCAUGUCGUAUUAUGGGAGGAUAUACGUGGACCGUAGUCCGCGUAGAAGGCCUAAUUA [Mat - Same State 1 - Mod of JL - D21] (Eterna round: R96, puzzle: Same State 1)”: the “apparent KD of MS2 coat protein” value amounted to 21 nM (input ligand: FMN 200 uM), 34.5 nM under setting [4] and 38.2 nM (input ligand: none).
Take “AAUUAACAUGAGGAUCACCCAUGUCGUAUUAUGGGAGGAUAUACGUGGACCGUAGUCCGCGUAGAAGGCCUAAUUA [Mat - Same State 1 - Mod of JL - D21] (puzzle: Same State 1)”: under setting [2], the “apparent KD of MS2 coat protein” value stood at 34.6 nM.
Regarding “AAUUAAGAUCAAGGAUAUCACGUCGUUUAGACGUGAGAAGGUGAUCAUAACAUGAGGAUCACCCAUGUAUUACAUGAAUUAAUU [SSNG1/2-B3] (Eterna round: R96, puzzle: Same State NG 1)”, the “apparent KD of MS2 coat protein” value runs as follows: (input ligand: FMN 200 uM) 72.4 nM; under setting [4], 404 nM; (input ligand: none) 370 nM.
As to “AAUUAAGAUCAAGGAUAUCACGUCGUUUAGACGUGAGAAGGUGAUCCAUACAUGAGGAUCACCCAUGUAUAACAUGAAUUAAUU [SSNG1/8-B3] (Eterna round: R96, puzzle: Same State NG 1)”, the “apparent KD of MS2 coat protein” value worked out at 180 nM (input ligand: FMN 200 uM), 1160 nM under setting [4] and 698 nM (input ligand: none).
Regarding “AAUUAAGAUCGAGGAUAUCACGUCGAAUAGACGUGAGAAGGCGAUCAUAACAUGAGGAUCACCCAUGUAUUACAUGAAUUAAUU [SSNG1/4-B1] (Eterna round: R96, puzzle: Same State NG 1)”, the “apparent KD of MS2 coat protein” value (input ligand: FMN 200 uM) was found to be 23.6 nM, the “apparent KD of MS2 coat protein” value under setting [4] was 22.9 nM and the “apparent KD of MS2 coat protein” value (input ligand: none) was determined as 27 nM.
As to “AAUUAAGAUCUAGGAUAUCACGUCGAUUAGACGUGAGAAGGAGAUCAUAACAUGAGGAUCACCCAUGUAUUACAUGAAUUAAUU [SSNG1/6-B2] (Eterna round: R96, puzzle: Same State NG 1)”, the “apparent KD of MS2 coat protein” value under setting [4] worked out at 23.4 nM.
The same measure, in the same setting: the same measure for “AAUUAAUUAAUACAUGAGGAUCACCCAUGUAAUUAUUAGAUCAAGGAUAUCAGCUCGAUUAGAGCUGAGAAGGUGAUCACAUGU [SSNG3/18-A2] (Eterna round: R96, puzzle: Same State NG 3)”: 282 nM; for “AAUUAAUUAAUACAUGAGGAUCACCCAUGUAAUUAUUAGAUCUAGGAUAUCAGCUCGUUUAGAGCUGAGAAGGAGAUCACAUGU [SSNG3/18-B3] (Eterna round: R96, puzzle: Same State NG 3)”: 15.1 nM.
For the sequence “AAUUAUUAACAUGAGGAUCACCCAUGUAAAACAUGGAUUAACAAGCCUUUUCGUUUUUGCUCGUCUUAUAUUAUUAA [Bojan's Design] (puzzle: Sensor for hsa-mir-208a version 2)”, the “apparent KD of MS2 coat protein” value under setting [1] stood at 167 nM and the “apparent KD of MS2 coat protein” value under setting [3] is 199 nM.
For “AAUUAUUAACAUGAGGAUCACCCAUGUAUAAGGGAGAAUAUUAUUAUUAUUAUUAACAAGCUUUUUGCUUGUCUCAU [Ribo-boogie] (puzzle: Sensor for hsa-mir-208a version 2)”, the “apparent KD of MS2 coat protein” value is, setting by setting: under setting [1], 48.6 nM; under setting [2], 67.9 nM; under setting [3], 68.4 nM.
Turning to “AAUUGUUCCUGAGGAUAUCAGUAGUUUGCUUUUUGAGAAGGCAGUACAUGAGGAUCACCCAUGUUGUGGUUUGAUAGAAUGAUA [JR_SSNG1_Sub005] (Eterna round: R96, puzzle: Same State NG 1)”, the “apparent KD of MS2 coat protein” value is, setting by setting: (input ligand: FMN 200 uM) 184 nM; under setting [4], 101 nM; (input ligand: none) 180 nM.
For “AAUUUAAUACAUGAGGAUCACCCAUGUAAAUUAAUUAAGAUCUAGGAUAUCAGCUCGAUUAGAGCUGAGAAGGAGAUCACAUGU [SSNG3/19-B2] (Eterna round: R96, puzzle: Same State NG 3)”, the “apparent KD of MS2 coat protein” value under setting [4] was 12 nM.
Still for that read-out and setting: the same measure for “AAUUUAAUACAUGAGGAUCACCCAUGUAAUACUAGUAAGAUCUAGGAUAUCAGCUCGUUUAGAGCUGAGAAGGAGAUCACAUGU [SSNG3/19-C3] (Eterna round: R96, puzzle: Same State NG 3)”: 62.1 nM.
On to “ACAAGCUUUUCUGCAUUGAAAGGUUGGUUACAUGAGGAUCACCCAUGUUUUUAUGAAAAUAAUGCUCCUCGUCUUAU [JR_SHM208A_Sub093] (puzzle: Sensor for hsa-mir-208a)”, for which the “apparent KD of MS2 coat protein” value is, setting by setting: under setting [1], 264 nM; under setting [2], 19.8 nM; under setting [3], 252 nM.
For “ACAAGCUUUUUAGGAGAGAAAGGUGGGAAACAUGAGGAUCACCCAUGUAUGGUAGUGAAUAGUGGAACUCGUCUUAU [JR_SHM208A_Sub081] (puzzle: Sensor for hsa-mir-208a)” the same measures were 400 nM, 104 nM and 462 nM.
For the sequence “ACAAGCUUUUUAGGAGAGAAAGGUGGGAUACAUGAGGAUCACCCAUGUAUGGUAGUUAAUAGUGGACCUCGUCUUAU [JR_SHM208A_Sub082] (puzzle: Sensor for hsa-mir-208a)”, the “apparent KD of MS2 coat protein” value by setting is: under setting [1], 46.5 nM; under setting [2], 21.7 nM; under setting [3], 64.1 nM.
In the same order, the values of “ACAAGCUUUUUGCUCAUCUUAUGUCCGAAACAUGAGGAUCACCCAUGUAUAGAUUAUGUGUUGUUUUUGAUACAAGA [JR_SHM208A_Sub064] (puzzle: Sensor for hsa-mir-208a)” are 32.1 nM, 24.9 nM and 33.1 nM.
In the same order, the values of “ACAAGCUUUUUUGUAGUGAAAGGUGGGAUACAUGAGGAUCACCCAUGUAUUGUUGUUAAUAUUUGUCCUCGUCUUAU [JR_SHM208A_Sub085] (puzzle: Sensor for hsa-mir-208a)” are 31.8 nM, 13.9 nM and 36.3 nM.
Take “ACAUGAAAUUGAGGAUAUUUUGUACCUACAUGUGACAUGAGGAUCACCCAUGUGGUAAGUAUGAGAAAGAAGGCAAAGAUAUGU [Equivalence 11 - Jieux - Same State NG 2] (Eterna round: R96, puzzle: Same State NG 2)”: the “apparent KD of MS2 coat protein” value reads like this: (input ligand: FMN 200 uM) 26.6 nM; under setting [4], 43.3 nM; (input ligand: none) 51 nM.
For “ACAUGAAAUUUAGGAUAUUUUGUACCUACAUGUGACAUGAGGAUCACCCAUGUGGUAAGUAUAAGAAAGAAGGAAAAGAUAUGU [Equivalence 8 - Jieux - Same State NG 2] (Eterna round: R96, puzzle: Same State NG 2)” the same measures were 61.1 nM, 41.2 nM and 64.9 nM.
For the sequence “ACAUGAGAAAGAGGAUAUUUUGUACCUACAUGUGACAUGAGGAUCACCCAUGUGGUAAGUAUGAGAAAGAAGGCUUAGAUAUGU [Equivalence 13 - Jieux - Same State NG 2] (Eterna round: R96, puzzle: Same State NG 2)”, the “apparent KD of MS2 coat protein” value reads like this: (input ligand: FMN 200 uM) 20.6 nM; under setting [4], 43.1 nM; (input ligand: none) 61.7 nM.
On to “ACAUGAGAAUGAGGAUAUGUUGUACCUACAUGUGACAUGAGGAUCACCCAUGUGGUAAGUAUGAUACAGAAGGCAUAGAUAUGU [Equivalance 62 - Jieux - Same State NG 2] (Eterna round: R96, puzzle: Same State NG 2)”, for which the “apparent KD of MS2 coat protein” value turned out to be 18.9 nM (input ligand: FMN 200 uM), 18 nM under setting [4] and 32.2 nM (input ligand: none).
For “ACAUGAGAAUUAGGAUAUAUAGUACCUACAUGUGACAUGAGGAUCACCCAUGUGGUAAGUAUGACAUAGAAGGAAUAGAUAUGU [Equivalance 97 - Jieux - Same State NG 2] (Eterna round: R96, puzzle: Same State NG 2)” the same measures were 66.5 nM, 42.9 nM and 56.8 nM.
As to “ACAUGAGACGGAGGAUAUUUUGUACCUACAUGUGACAUGAGGAUCACCCAUGUGGUAAGUAUGAGAAAGAAGGCCGAGAUAUGU [Equivalence 19 - Jieux - Same State NG 2] (Eterna round: R96, puzzle: Same State NG 2)”, the “apparent KD of MS2 coat protein” value stood at 14.2 nM (input ligand: FMN 200 uM), 17.7 nM under setting [4] and 29.6 nM (input ligand: none).
For “ACAUGAGACUAAGGAUAUGGUGUACCUACAUGUGACAUGAGGAUCACCCAUGUGGUAAGUAUGACUCAGAAGGUAGAGAUAUGU [Equivalance 75 - Jieux - Same State NG 2] (Eterna round: R96, puzzle: Same State NG 2)” the same measures were 37.9 nM, 280 nM and 436 nM.
For the sequence “ACAUGAGACUCAGGAUAUGGUGUACCUACAUGUGACAUGAGGAUCACCCAUGUGGUAAGUAUGACUCAGAAGGGAGAGAUAUGU [Equivalance 76 - Jieux - Same State NG 2] (Eterna round: R96, puzzle: Same State NG 2)”, the “apparent KD of MS2 coat protein” value (input ligand: FMN 200 uM) was determined as 37.4 nM, the “apparent KD of MS2 coat protein” value under setting [4] was 116 nM and the “apparent KD of MS2 coat protein” value (input ligand: none) amounted to 171 nM.
